This note sets out measurements from patent US20070099248A1.

The assay has as its target biotinylated AP-neuroligin-1 on rat hippocampal neurons (mouse neuroligin-1 with acceptor peptide at the N-terminus, biotinylated with biotin ligase) (mouse) (UniProt Q99K10). Nature of the assay: cell-based or functional assay.

Sequence of biotinylated AP-neuroligin-1 on rat hippocampal neurons (mouse neuroligin-1 with acceptor peptide at the N-terminus, biotinylated with biotin ligase) (mouse) (Q99K10 46-843, form in doubt): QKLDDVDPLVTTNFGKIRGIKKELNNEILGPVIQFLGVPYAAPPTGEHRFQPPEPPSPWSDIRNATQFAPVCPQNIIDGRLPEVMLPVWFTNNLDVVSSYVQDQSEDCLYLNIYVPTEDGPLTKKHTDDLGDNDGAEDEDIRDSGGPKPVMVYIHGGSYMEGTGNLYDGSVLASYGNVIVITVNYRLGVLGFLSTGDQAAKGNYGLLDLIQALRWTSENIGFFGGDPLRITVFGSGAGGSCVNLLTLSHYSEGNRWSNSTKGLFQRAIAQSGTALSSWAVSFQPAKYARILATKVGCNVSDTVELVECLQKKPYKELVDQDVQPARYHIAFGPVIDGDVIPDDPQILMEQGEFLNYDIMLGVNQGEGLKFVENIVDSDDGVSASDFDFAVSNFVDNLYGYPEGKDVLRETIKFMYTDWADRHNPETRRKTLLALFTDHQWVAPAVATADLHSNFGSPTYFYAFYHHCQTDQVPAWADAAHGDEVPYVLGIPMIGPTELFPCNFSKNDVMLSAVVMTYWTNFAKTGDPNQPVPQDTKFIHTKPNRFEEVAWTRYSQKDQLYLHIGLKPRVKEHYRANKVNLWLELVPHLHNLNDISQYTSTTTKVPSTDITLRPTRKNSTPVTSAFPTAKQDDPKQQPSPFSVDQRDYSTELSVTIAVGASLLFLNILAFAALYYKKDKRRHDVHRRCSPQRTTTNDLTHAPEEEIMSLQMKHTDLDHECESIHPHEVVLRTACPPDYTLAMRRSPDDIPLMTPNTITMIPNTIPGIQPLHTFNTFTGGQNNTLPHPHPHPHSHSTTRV

The substance “monovalent streptavidin A1D3 (one Alive subunit with His6 tag, three Dead subunits), Alexa Fluor 568-conjugated (designed binder)” had a clusters/µm of dendrite after two hour incubation of 0.087 clusters/µm.

The substance “Alexa Fluor 568-conjugated wild-type streptavidin (Molecular Probes) (from UniProt P22629 37-163)” returned a clusters/µm of dendrite after two hour incubation of 0.266 clusters/µm.
